In CN114891108A (SHANGHAI XUNLU BIO TECH CO LTD, dated 2022):

Experiments:
[1] = target: T1, Biotinylated Human BCMA/TNFRSF17 Protein, His,Avitag (human, UniProt Q02223 1-54, biotinylated (Avitag)); experiment: phage ELISA
T1 construct: Bought recombinant protein; also called Human BCMA-his-Bio; Human-BCMA-his-Bio
T1 sequence (looked up): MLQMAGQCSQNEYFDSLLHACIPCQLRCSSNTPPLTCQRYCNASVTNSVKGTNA

[2] = target: T2, Mouse BCMA/TNFRSF17 Protein, His Tag (mouse, UniProt O88472 1-49); experiment: phage ELISA
T2 construct: Bought recombinant protein; also called Mouse-BCMA-his; 鼠的BCMA蛋白
T2 chain (looked up): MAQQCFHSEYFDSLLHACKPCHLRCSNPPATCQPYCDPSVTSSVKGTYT

[3] = target: T3, BCMA on cells (293CT-BCMA, MM.1S) (UniProt Q02223 1-184, limits assumed); experiment: phage flow cytometry on 293CT-BCMA cells
T3 construct: whole, on cells; also called 细胞膜表面天然状态的BCMA
T3 sequence (looked up): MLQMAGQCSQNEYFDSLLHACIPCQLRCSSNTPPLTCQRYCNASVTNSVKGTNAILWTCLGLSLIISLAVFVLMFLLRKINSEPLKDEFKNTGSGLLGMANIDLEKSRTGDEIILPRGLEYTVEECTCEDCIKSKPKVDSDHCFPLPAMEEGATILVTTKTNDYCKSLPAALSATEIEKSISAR

[4] = target: T3, BCMA on cells (293CT-BCMA, MM.1S); experiment: flow cytometry titration on 293CT-BCMA and MM.1S cells

B1: Clone 41 (scFv)
scFv: QSVLTQPPSVSGAPGQTVTISCTGSSSNIGAGYIVNWYQQLPGTAPKLLIYFTGNRPSGVPGRFSGSRSGTSASLAITRLQAEDEADYYCQSFDRSLGGYVFGTATKVTVLGSRGGGGSGGGGSGGGGSLEMAQLQLQESGPGLVKPSETLSLTCTVSGGSISSSSYYWGWIRQPPGKGLEWIGSISYSGSTYYNPSLKSRVTISVDTSKNQFSLKLSSVTAADTAVYYCARDRGDTILDVWGQGTMVTVSS
notes: The fusion to the phage coat protein is not described; also called 噬菌体单克隆Clone 41; Clone 41单链抗体
**Q.** Does B1 bind [1]?
**A.** binds

**Q.** Does B1 bind [2]?
**A.** no binding

**Q.** Does B1 bind [3]?
**A.** binds

B2: mAb 41 (Fc fusion)
chain: QSVLTQPPSVSGAPGQTVTISCTGSSSNIGAGYIVNWYQQLPGTAPKLLIYFTGNRPSGVPGRFSGSRSGTSASLAITRLQAEDEADYYCQSFDRSLGGYVFGTATKVTVLGSRGGGGSGGGGSGGGGSLEMAQLQLQESGPGLVKPSETLSLTCTVSGGSISSSSYYWGWIRQPPGKGLEWIGSISYSGSTYYNPSLKSRVTISVDTSKNQFSLKLSSVTAADTAVYYCARDRGDTILDVWGQGTMVTVSS
notes: also called Clone 41 IgG; 抗BCMA IgG (Clone 41); not shown: Human IgG4 Fc
**Q.** Does B2 bind [4]?
**A.** binds
